These results are taken from PMC8207774, “NtbHLH1, a JAF13-like bHLH, interacts with NtMYB6 to enhance proanthocyanidin accumulation in Chinese Narcissus” (BMC Plant Biology, 2021).

For this assay, the target named is T1, NtbHLH1 (Chinese narcissus (Narcissus tazetta L. …, UniProt A0A517FM44 1-631)).
T1 sequence (looked up): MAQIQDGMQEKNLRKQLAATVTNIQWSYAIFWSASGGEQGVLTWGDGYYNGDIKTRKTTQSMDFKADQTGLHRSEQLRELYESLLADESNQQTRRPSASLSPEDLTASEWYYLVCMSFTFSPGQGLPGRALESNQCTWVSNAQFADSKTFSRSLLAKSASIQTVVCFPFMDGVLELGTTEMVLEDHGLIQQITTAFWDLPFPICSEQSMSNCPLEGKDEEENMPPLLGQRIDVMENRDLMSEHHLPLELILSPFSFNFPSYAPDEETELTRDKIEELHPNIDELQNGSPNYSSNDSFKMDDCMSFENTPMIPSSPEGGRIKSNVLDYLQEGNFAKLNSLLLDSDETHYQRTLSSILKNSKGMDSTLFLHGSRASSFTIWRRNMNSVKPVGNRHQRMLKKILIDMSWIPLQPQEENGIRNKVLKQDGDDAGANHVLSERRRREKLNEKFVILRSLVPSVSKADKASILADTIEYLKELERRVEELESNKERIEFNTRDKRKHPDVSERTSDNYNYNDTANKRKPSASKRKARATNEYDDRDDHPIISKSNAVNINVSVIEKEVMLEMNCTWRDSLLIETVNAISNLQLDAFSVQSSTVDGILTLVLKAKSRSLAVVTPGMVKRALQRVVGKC
Briefly: cell-based or functional assay.

B1: NtMYB6 (natural protein, UniProt A0A1U9X216 1-249, looked up)
chain: MGRAPCCSKVGLHRGPWTAREDALLTNYIQCHGEGNWRSLPKNAGLLRCGKSCRLRWMNYLRPDIKRGNIGPEEEDLIIRLHSLLGNRWSIIAGRLPGRTDNEIKNYWNSHLSKKLKKQGIQVRGNLSSKQSKSSKMNNNDNNNNLEKRKNIKETPKIKIHAPKPTRFTRTISQSSSSCQANNVENVTSEDERCDIPWTNAESQDDIFAPGSWNYELFDIDRVYQEYSQLLNGEDDQFPMASFTESVFA
For the molecule B1, the “NtDFR promoter activity, dual luciferase assay in N. benthamiana leaves, co-infiltration of NtbHLH1 and NtMYB6 compared to NtMYB6 alone” value was around 8 fold; the “NtDFR promoter activity, dual luciferase assay in N. benthamiana leaves, co-infiltration of NtbHLH1 and NtMYB6 compared to the control” value was around 14 fold.
